Results from the supplement of paper PMC10126150.
± gives the standard deviation of the averaged measurements.

System: ATP
Experiment: switch fluorescence ratio, 500 uM ATP over buffer (Cy3 cluster intensity, sum of 5 cycles each) (fold (ratio)); higher = stronger signal-on switching upon ATP binding; sequences stand for … in TCGTCGGCAGCGTCAGATGTGTATAAGAGACAGTTTTTTTTTTTTTTTTTTTTTTTTT…TC
Conditions: aptamer strand: ATP DNA aptamer (quencher-CACCTGGGGGAGTATTGCGGAGGAAGG + anchor), 100 nM annealed; ATP concentration: 500 uM
Summary of the method: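 Exposure to 500 uM ATP lasted 15 min at 22 °C before imaging, and a selection-buffer image was taken beforehand, for Cy3-labelled switching-strand clusters on a modified Illumina MiSeq flow-cell annealed to 100 nM quencher-labelled ATP aptamer. Five buffer/ATP cycles were run with NaOH stripping and re-annealing between them. The fluorescence ratio per cluster is summed target-cycle over summed buffer-cycle Cy3 intensity, averaged per switch-domain sequence. Clusters outside 100-1000 RFU were excluded.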

Sequence | switch fluorescence ratio
ATAGAATGAT | 0.995 ± 0.017
CGTTTGGCCC | 0.988 ± 0.044
AGAATAGAGT | 0.97 ± 0.038
GCTGCGGGTC | 1.02 ± 0.033
ACGGTAGGGT | 1.12 ± 0.06
AAATGGTGTC | 1.01 ± 0.055
TTGGATTCGG | 0.972 ± 0.017
TGAACCGCGA | 2.96 ± 0.18
GCTATGTGGG | 1.003 ± 0.0041
TTGTATGGTT | 1.02 ± 0.019
GGGCCATCGT | 0.993 ± 0.026
AGTTGCGGGA | 1.0114 ± 0.00031
TCGTGTTCTT | 0.95 ± 0.028
TACAGGGGCC | 1 ± 0.022
AAATTGATCC | 0.964 ± 0.016
AAGGAGGTCA | 0.977 ± 0.021
TACTGGACTT | 1.14 ± 0.033
ATTTGGACGA | 1 ± 0.03
TGGAATTAGT | 0.986 ± 0.038
CGTATATGTG | 0.989 ± 0.035
GTGGGATTCG | 1.011 ± 0.0059
TGGGTTTTAA | 0.999 ± 0.025
CGTTTTTCTT | 0.958 ± 0.05
AGTGTGTCTT | 0.9877 ± 0.004
TTTTGTAATT | 1.1 ± 0.2

Sequence | switch fluorescence ratio
GAGTTTGTTA | 1.01 ± 0.07
TTGGTCAAAA | 1.022 ± 0.0089
TTAGAGGCTG | 0.912 ± 0.15
CGGCAAGAGT | 1.479 ± 0.0019
ATCGGAAAG | 1.65 ± 0.92
CTCATAGCGG | 1.02 ± 0.029
AATTTTTCGC | 0.98 ± 0.024
GAGTGCAGGT | 1.01 ± 0.015
TGTTTTTAA | 1 ± 0.062
TAGCGGGGAC | 1.07 ± 0.037
ACGCGCGCGC | 0.987 ± 0.036
CAATTGGGTG | 1.06 ± 0.022
ACCATTAGCA | 0.998 ± 0.022
TAAGTACGGC | 1.31 ± 0.02
TAGATGCGGT | 1.01 ± 0.032
AATAAGAGGA | 1.02 ± 0.026
TAGTTTGTTT | 1.02 ± 0.074
AGTATTGTTT | 1.01 ± 0.02
CGTGAGAATG | 0.997 ± 0.026
ACTGGGGGCG | 1.03 ± 0.053
GATGGAGATA | 0.936 ± 0.06
TTGTATGAAG | 0.951 ± 0.061
TTTGGACCGA | 1.03 ± 0.016
GCTTTTGTGG | 0.986 ± 0.035
CCACAAAATT | 1.1 ± 0.18

Sequence | switch fluorescence ratio
GAGGTGAAAT | 1.01 ± 0.027
CTTGCATTGA | 1.08 ± 0.071
CTGAGATTTT | 0.931 ± 0.018
TGAGGTTGGC | 1.01 ± 0.023
GGGGGTTTGC | 0.991 ± 0.059
GCCTTGACAG | 0.989 ± 0.025
TTTTATGGTT | 0.997 ± 0.032
CTATGTGGAG | 0.975 ± 0.033
ACCTGGATAC | 1.86 ± 0.019
AAGGAAGTTT | 1.06 ± 0.18
GGTTATAGGG | 0.9802 ± 0.008
CGACGATTTG | 1.01 ± 0.026
AGGAGGGTTT | 0.999 ± 0.032
GGGGTCACGG | 1.006 ± 0.0027
TTTGTTCTGT | 1.01 ± 0.018
AAGCTAGGGA | 1.01 ± 0.05
CATAGGGTTT | 1.04 ± 0.047
TTACGAAGTT | 1 ± 0.019
GTTAGAGATA | 0.992 ± 0.015
TTTATGAAGA | 0.985 ± 0.027
TATGTTCACG | 0.9924 ± 0.0042
TCGGGGGAGC | 0.984 ± 0.025
GTGATCTTAT | 0.9965 ± 0.0031
AGGTACGATT | 1.02 ± 0.034
TTTTTTCCG | 1.08 ± 0.1

Sequence | switch fluorescence ratio
TGGGGAACAC | 0.995 ± 0.043
GCCCAATTTT | 0.998 ± 0.034
TAAGAATGGG | 0.9966 ± 0.0078
TTCATGAGTG | 0.9696 ± 0.0051
ACAGTTAATA | 1.06 ± 0.018
GACTCGGTGC | 1.05 ± 0.019
AAGGTGCAAG | 1.03 ± 0.053
TCATCGGGG | 0.947 ± 0.027
GTGAATAGAG | 1 ± 0.027
CCTTTCGGGT | 0.982 ± 0.039
TGAAAATTTT | 0.99 ± 0.029
ACTCTGTGC | 1.21 ± 0.032
GAGGGTATTA | 1.02 ± 0.019
CGAATATAGC | 1.02 ± 0.015
TAGATTGTAA | 1.05 ± 0.11
ATTGGGAAGA | 1.02 ± 0.028
CTCAAAGTCT | 1.02 ± 0.012
GGGTCGGGGC | 1.02 ± 0.017
CCCAGTTTGG | 1.01 ± 0.015
CAGGGAGACG | 1.12 ± 0.047
TGTGGTATGG | 1.008 ± 0.0065
AGCCGTTTCG | 0.999 ± 0.017
AGGAAGTTGC | 0.9883 ± 0.0085
GCTTTCAGGG | 1.01 ± 0.025
ATTGGCGCGG | 0.969 ± 0.012

Sequence | switch fluorescence ratio
ATAAGGGATG | 0.998 ± 0.017
ACTGGATCCA | 1.01 ± 0.013
ATGTTTTTCG | 0.9718 ± 0.0029
CGGTTGACTT | 0.992 ± 0.057
TTGGCCGTGT | 1.02 ± 0.028
TAAAGGTCGG | 0.967 ± 0.028
GCTTGGCAGT | 1.03 ± 0.018
CGATATATGA | 1.02 ± 0.019
TTTCCTTTT | 1.014 ± 0.0083
AGTGACGCGT | 1.007 ± 0.0033
TCGTATCATT | 0.976 ± 0.02
CGTTTAGACG | 1.09 ± 0.095
ACAATTGATG | 1 ± 0.04
AATGATAAGC | 1.04 ± 0.028
AAGTAGCGCT | 1 ± 0.024
ATCCGGTCGG | 1.03 ± 0.066
CGAAGAGGCG | 0.997 ± 0.052
GAGACATTGG | 1 ± 0.062
GTTGCTGTGG | 0.985 ± 0.026
TCGAGAGAAA | 1.01 ± 0.016
TGGCGGTCGG | 1 ± 0.048
GGAGCGCTGG | 1.05 ± 0.02
GAGGGCTTTT | 0.98 ± 0.017
GGAAATGGTG | 1.1 ± 0.11
TTTGGAAGGG | 1 ± 0.026

Sequence | switch fluorescence ratio
CGTGGCGCGT | 1.05 ± 0.11
TGGGCCGCTT | 1.04 ± 0.028
CAGGTTGCAC | 0.9894 ± 0.0069
TTTAATTTTC | 1.05 ± 0.14
GGGGGTTCCG | 0.98 ± 0.021
GTAGTGACGT | 0.975 ± 0.044
AGGGCCGGTC | 1.06 ± 0.04
TTTATGACAT | 0.971 ± 0.029
TTGGACAGTT | 0.99 ± 0.04
GGGGCTTTTT | 1 ± 0.036
GACTTTGGAG | 1 ± 0.027
TGAATTTTTG | 0.989 ± 0.028
GCCGCGGGTC | 1.08 ± 0.048
CGGTCGGGCG | 1.03 ± 0.023
ATTTTGTCGC | 0.992 ± 0.016
TTAACGGGAG | 0.99 ± 0.019
TTATAATGTG | 1.009 ± 0.01
TGTGTTCTAG | 1.005 ± 0.0046
TCCTAAACGT | 1.072 ± 0.0029
GTGGACGTTT | 1.02 ± 0.057
CTAGTTAGGG | 0.964 ± 0.02
TAATTGAGAA | 0.986 ± 0.037
GTTTAGTAAG | 1 ± 0.013
TCAATCATTT | 0.997 ± 0.053
AGAACCATCG | 1.05 ± 0.016

Sequence | switch fluorescence ratio
AGGCAGTGTC | 1.04 ± 0.05
TGATGCGGAT | 1.016 ± 0.0013
GCATAGGGAA | 1 ± 0.015
TAATGTTTAT | 0.996 ± 0.026
TGGGACCCTT | 1.06 ± 0.023
ACGGAGGGGT | 1.14 ± 0.13
AGTCGGCGGA | 0.998 ± 0.014
TCTGTAGGTG | 1.07 ± 0.046
AACGGGGAAC | 0.986 ± 0.014
TGGGAGCCCG | 0.9853 ± 0.0034
TGAACTTGGT | 0.929 ± 0.12
CTGCTCGGTG | 0.987 ± 0.062
GGGTGGGATT | 0.986 ± 0.018
CAGATGGTTG | 0.9835 ± 0.0041
CGAATCCATT | 0.9869 ± 0.0033
AGTTTGAAGG | 0.9894 ± 0.0073
AGTTATAAGT | 0.979 ± 0.01
GGGGGAAGGT | 0.982 ± 0.032
GGCTGAATGG | 0.988 ± 0.033
CGGGTGAGCT | 1.11 ± 0.16
ATTAGTTGGA | 0.99 ± 0.024
CGGTGGCTCC | 1.026 ± 0.0025
GCAGGGGGCA | 1.024 ± 0.01
GCAAGTTTCA | 0.996 ± 0.034
GTTATAGTCG | 0.999 ± 0.05

Sequence | switch fluorescence ratio
AGCAGTTTAC | 1.17 ± 0.054
GGGTGGCCTA | 1 ± 0.015
CAAGTGGCGG | 0.969 ± 0.016
TCGTGTTTTT | 1.01 ± 0.013
TTGGGAAGGA | 1.02 ± 0.042
CTGCTAGGTA | 0.9975 ± 0.0027
TTTATGAGCA | 0.998 ± 0.035
TTCTACTTTG | 1.035 ± 0.0074
TGTTTCTATT | 0.9925 ± 0.0055
TGCTTTACGG | 1.009 ± 0.0082
CGAGTGGATG | 0.994 ± 0.018
GATGAAACGT | 1.06 ± 0.045
CACGTGTGGT | 0.988 ± 0.036
TCGGTGAGGG | 1.02 ± 0.07
TTTATCGGCT | 1.06 ± 0.078
TTTGTTTTCA | 0.989 ± 0.034
TTGTGGCAAG | 1 ± 0.018
CATCAAGGGA | 1.02 ± 0.045
GCGTAGAATC | 1.02 ± 0.018
AAAATTTAGC | 0.964 ± 0.054
TTGTATTT | 0.979 ± 0.022
GGGAATGGGG | 0.992 ± 0.044
TTCGGGGCGC | 1.03 ± 0.065
CATATGGCTT | 1.02 ± 0.023
GAACACAAAA | 1.05 ± 0.032
